Measured values: IntAct's records for PubMed 24366543

B1: Nuclear factor erythroid 2-related factor 2 (Mus musculus), Q60795 (parent)
chain: MMDLELPPPGLQSQQDMDLIDILWRQDIDLGVSREVFDFSQRQKDYELEKQKKLEKERQEQLQKEQEKAFFAQFQLDEETGEFLPIQPAQHIQTDTSGSASYSQVAHIPKQDALYFEDCMQLLAETFPFVDDHESLALDIPSHAESSVFTAPHQAQSLNSSLEAAMTDLSSIEQDMEQVWQELFSIPELQCLNTENKQLADTTAVPSPEATLTEMDSNYHFYSSISSLEKEVGNCGPHFLHGFEDSFSSILSTDDASQLTSLDSNPTLNTDFGDEFYSAFIAEPSDGGSMPSSAAISQSLSELLDGTIEGCDLSLCKAFNPKHAEGTMEFNDSDSGISLNTSPSRASPEHSVESSIYGDPPPGFSDSEMEELDSAPGSVKQNGPKAQPAHSPGDTVQPLSPAQGHSAPMRESQCENTTKKEVPVSPGHQKAPFTKDKHSSRLEAHLTRDELRAKALHIPFPVEKIINLPVDDFNEMMSKEQFNEAQLALIRDIRRRGKNKVAAQNCRKRKLENIVELEQDLGHLKDEREKLLREKGENDRNLHLLKRRLSTLYLEVFSMLRDEDGKPYSPSEYSLQQTRDGNVFLVPKSKKPDTKKN

Variants of: B1
Settings: with keap1_mouse Keap1, Q9Z2X8
keap1_mouse Keap1, Q9Z2X8, sequence (Q9Z2X8 whole entry): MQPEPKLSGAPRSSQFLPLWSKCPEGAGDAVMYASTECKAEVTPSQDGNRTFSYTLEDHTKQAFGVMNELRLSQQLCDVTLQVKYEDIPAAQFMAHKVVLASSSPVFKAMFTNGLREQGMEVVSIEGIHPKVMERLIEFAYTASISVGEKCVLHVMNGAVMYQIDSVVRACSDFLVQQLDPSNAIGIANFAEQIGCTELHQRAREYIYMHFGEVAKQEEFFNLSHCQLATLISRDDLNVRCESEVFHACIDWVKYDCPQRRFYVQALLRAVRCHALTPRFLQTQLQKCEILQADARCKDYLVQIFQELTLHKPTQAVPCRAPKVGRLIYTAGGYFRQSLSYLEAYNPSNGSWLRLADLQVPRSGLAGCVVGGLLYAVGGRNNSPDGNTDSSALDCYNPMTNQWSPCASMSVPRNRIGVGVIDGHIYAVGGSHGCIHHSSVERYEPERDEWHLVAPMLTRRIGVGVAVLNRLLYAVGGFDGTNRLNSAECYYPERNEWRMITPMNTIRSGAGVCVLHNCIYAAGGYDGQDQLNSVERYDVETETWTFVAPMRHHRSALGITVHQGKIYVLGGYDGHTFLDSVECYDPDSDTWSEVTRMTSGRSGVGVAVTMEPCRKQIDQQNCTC

Variant | effect of a mutation on the interaction
MMDLELPPPGLQSQQDMDLIDILWRQDTDLGVSREVFDFSQRQKDYELEKQKKLEKERQEQLQKEQEKAFFAQFQLDEETGEFLPIQPAQHIQTDTSGSASYSQVAHIPKQDALYFEDCMQLLAETFPFVDDHESLALDIPSHAESSVFTAPHQAQSLNSSLEAAMTDLSSIEQDMEQVWQELFSIPELQCLNTENKQLADTTAVPSPEATLTEMDSNYHFYSSISSLEKEVGNCGPHFLHGFEDSFSSILSTDDASQLTSLDSNPTLNTDFGDEFYSAFIAEPSDGGSMPSSAAISQSLSELLDGTIEGCDLSLCKAFNPKHAEGTMEFNDSDSGISLNTSPSRASPEHSVESSIYGDPPPGFSDSEMEELDSAPGSVKQNGPKAQPAHSPGDTVQPLSPAQGHSAPMRESQCENTTKKEVPVSPGHQKAPFTKDKHSSRLEAHLTRDELRAKALHIPFPVEKIINLPVDDFNEMMSKEQFNEAQLALIRDIRRRGKNKVAAQNCRKRKLENIVELEQDLGHLKDEREKLLREKGENDRNLHLLKRRLSTLYLEVFSMLRDEDGKPYSPSEYSLQQTRDGNVFLVPKSKKPDTKKN [I28T] | disrupting interaction

Variants of: B1
Settings: with keap1_mouse Keap1, Q9Z2X8
Remark: another data set of the same source

Variant | effect of a mutation on the interaction
MMDLELPPPGLQSQQDMDLIDILWRQDIDLAVSREVFDFSQRQKDYELEKQKKLEKERQEQLQKEQEKAFFAQFQLDEETGEFLPIQPAQHIQTDTSGSASYSQVAHIPKQDALYFEDCMQLLAETFPFVDDHESLALDIPSHAESSVFTAPHQAQSLNSSLEAAMTDLSSIEQDMEQVWQELFSIPELQCLNTENKQLADTTAVPSPEATLTEMDSNYHFYSSISSLEKEVGNCGPHFLHGFEDSFSSILSTDDASQLTSLDSNPTLNTDFGDEFYSAFIAEPSDGGSMPSSAAISQSLSELLDGTIEGCDLSLCKAFNPKHAEGTMEFNDSDSGISLNTSPSRASPEHSVESSIYGDPPPGFSDSEMEELDSAPGSVKQNGPKAQPAHSPGDTVQPLSPAQGHSAPMRESQCENTTKKEVPVSPGHQKAPFTKDKHSSRLEAHLTRDELRAKALHIPFPVEKIINLPVDDFNEMMSKEQFNEAQLALIRDIRRRGKNKVAAQNCRKRKLENIVELEQDLGHLKDEREKLLREKGENDRNLHLLKRRLSTLYLEVFSMLRDEDGKPYSPSEYSLQQTRDGNVFLVPKSKKPDTKKN [G31A] | disrupting interaction

Variants of: B1
Settings: with keap1_mouse Keap1, Q9Z2X8
Remark: another data set of the same source

Variant | effect of a mutation on the interaction
MMDLELPPPGLQSQQDMDLIDILWRQDIDFGVSREVFDFSQRQKDYELEKQKKLEKERQEQLQKEQEKAFFAQFQLDEETGEFLPIQPAQHIQTDTSGSASYSQVAHIPKQDALYFEDCMQLLAETFPFVDDHESLALDIPSHAESSVFTAPHQAQSLNSSLEAAMTDLSSIEQDMEQVWQELFSIPELQCLNTENKQLADTTAVPSPEATLTEMDSNYHFYSSISSLEKEVGNCGPHFLHGFEDSFSSILSTDDASQLTSLDSNPTLNTDFGDEFYSAFIAEPSDGGSMPSSAAISQSLSELLDGTIEGCDLSLCKAFNPKHAEGTMEFNDSDSGISLNTSPSRASPEHSVESSIYGDPPPGFSDSEMEELDSAPGSVKQNGPKAQPAHSPGDTVQPLSPAQGHSAPMRESQCENTTKKEVPVSPGHQKAPFTKDKHSSRLEAHLTRDELRAKALHIPFPVEKIINLPVDDFNEMMSKEQFNEAQLALIRDIRRRGKNKVAAQNCRKRKLENIVELEQDLGHLKDEREKLLREKGENDRNLHLLKRRLSTLYLEVFSMLRDEDGKPYSPSEYSLQQTRDGNVFLVPKSKKPDTKKN [L30F] | disrupting interaction

Variants of: B1
Settings: with keap1_mouse Keap1, Q9Z2X8
Remark: another data set of the same source

Variant | effect of a mutation on the interaction
MMDLELPPPGLQSQQDMDLIDILWRQDIGLGVSREVFDFSQRQKDYELEKQKKLEKERQEQLQKEQEKAFFAQFQLDEETGEFLPIQPAQHIQTDTSGSASYSQVAHIPKQDALYFEDCMQLLAETFPFVDDHESLALDIPSHAESSVFTAPHQAQSLNSSLEAAMTDLSSIEQDMEQVWQELFSIPELQCLNTENKQLADTTAVPSPEATLTEMDSNYHFYSSISSLEKEVGNCGPHFLHGFEDSFSSILSTDDASQLTSLDSNPTLNTDFGDEFYSAFIAEPSDGGSMPSSAAISQSLSELLDGTIEGCDLSLCKAFNPKHAEGTMEFNDSDSGISLNTSPSRASPEHSVESSIYGDPPPGFSDSEMEELDSAPGSVKQNGPKAQPAHSPGDTVQPLSPAQGHSAPMRESQCENTTKKEVPVSPGHQKAPFTKDKHSSRLEAHLTRDELRAKALHIPFPVEKIINLPVDDFNEMMSKEQFNEAQLALIRDIRRRGKNKVAAQNCRKRKLENIVELEQDLGHLKDEREKLLREKGENDRNLHLLKRRLSTLYLEVFSMLRDEDGKPYSPSEYSLQQTRDGNVFLVPKSKKPDTKKN [D29G] | disrupting interaction

Variants of: B1
Settings: with keap1_mouse Keap1, Q9Z2X8
Remark: another data set of the same source

Variant | effect of a mutation on the interaction
MMDLELPPPGLQSQQDMDLIDILWRQDIHLGVSREVFDFSQRQKDYELEKQKKLEKERQEQLQKEQEKAFFAQFQLDEETGEFLPIQPAQHIQTDTSGSASYSQVAHIPKQDALYFEDCMQLLAETFPFVDDHESLALDIPSHAESSVFTAPHQAQSLNSSLEAAMTDLSSIEQDMEQVWQELFSIPELQCLNTENKQLADTTAVPSPEATLTEMDSNYHFYSSISSLEKEVGNCGPHFLHGFEDSFSSILSTDDASQLTSLDSNPTLNTDFGDEFYSAFIAEPSDGGSMPSSAAISQSLSELLDGTIEGCDLSLCKAFNPKHAEGTMEFNDSDSGISLNTSPSRASPEHSVESSIYGDPPPGFSDSEMEELDSAPGSVKQNGPKAQPAHSPGDTVQPLSPAQGHSAPMRESQCENTTKKEVPVSPGHQKAPFTKDKHSSRLEAHLTRDELRAKALHIPFPVEKIINLPVDDFNEMMSKEQFNEAQLALIRDIRRRGKNKVAAQNCRKRKLENIVELEQDLGHLKDEREKLLREKGENDRNLHLLKRRLSTLYLEVFSMLRDEDGKPYSPSEYSLQQTRDGNVFLVPKSKKPDTKKN [D29H] | disrupting interaction
